Data as given in patent publication US20100166722A1.

How the values were obtained:
[1] = molecular target: cognate NY-ESO peptide-MHC presented on peptide-pulsed APCs; assay: cell-based or functional assay
[2] = molecular target: biotinylated cognate NY-ESO peptide-HLA-A*0201 complex; assay: SPR (Biacore 3000), soluble TCR over immobilised biotinylated pMHC

Row | IFN-γ release ELISA, CD4+ T cells; peptide pulsing level needed for a significant response [1] [nM] | Half-live (T½) [2] [s] | Substance
1 | > 10 | – | full-length wild-type 1G4 NY-ESO TCR expressed on transfected T cells
2 | – | 2.2 | soluble disulfide-linked wild-type 1G4 NY-ESO TCR
